B1: Clone MAb002 (antibody, human IgG1, kappa, L234A L235A, V domains shown)
VH: EVQLLESGGGLVQPGGSLRLSCAASGYTFTDQTIHWVRQAPGKGLEWIGYIYPRDDSPKYNENFKGRATLSADNSKNTAYLQMNSLRAEDTAVYYCAIPDRSGYAWFIYWGQGTTVTVSS
VL: EIVMTQSPATLSVSPGERATLSCKASRDVAIAVAWYQQKPGQAPRLLLFWASTRHTGIPARFSGSGSRTEFTLTISSLQSEDFAVYYCHQYSSYPFTFGGGTKVEIKR
notes: Described as an extended half-life humanized IgG1 monoclonal antibody
B2: Reference Antibody 1 (antibody, human IgG1, kappa, L234A L235A, V domains shown)
VH: QVQLVQSGAEVKKPGSSVKVSCKASGYTFTDQTIHWMRQAPGQGLEWIGYIYPRDDSPKYNENFKGKVTITADKSTSTAYMELSSLRSEDTAVYYCAIPDRSGYAWFIYWGQGTLVTVSS
VL: DIQMTQSPSSLSASVGDRVTITCKASRDVAIAVAWYQQKPGKVPKLLIYWASTRHTGVPSRFSGSGSRTDFTLTISSLQPEDVADYFCHQYSSYPFTFGSGTKLEIKR
notes: Human IgG1 with LALA; also called parental anti-human IL-23p19 antibody
B3: Clone MAb004 (antibody, human IgG1, V domains shown)
VH: B2 VH with D31A, I34M, D56G, P58T, Y109V
VL: EIVMTQSPATLSVSPGERATLSCKASRDVAIAVAWYQQKPGQAPRLLLFWASTRHTGIPARFSGSGSRTEFTLTISSLQSEDFAVYYCHQYSSYPFTFGGGTKVEIK
notes: Tested in full antibody format; The printed constant part is human IgG1 with LALA/YTE
B4: Clone MAb001 (antibody, human IgG1, kappa, L234A L235A, V domains shown)
VH: B2 VH with D31T, I34L, D56G, P58T, I108Q, Y109H
VL: B2 VL
B5: Clone MAb003 (antibody, V domains shown)
VH: B2 VH with D31S, I34M, S57Y, E62D, Y109H
VL: B2 VL

Positions count from the first letter of the chain named. Some results are limits rather than exact numbers.

The target of the first experiment is T1, Recombinant Human IL-23 (human, UniProt Q9NPF7 20-189; P29460 23-328).
T1 construct: Recombinant human IL-23; the p40 subunit is added from general knowledge of the heterodimer; also called hIL-23
T1 sequence (looked up) 1: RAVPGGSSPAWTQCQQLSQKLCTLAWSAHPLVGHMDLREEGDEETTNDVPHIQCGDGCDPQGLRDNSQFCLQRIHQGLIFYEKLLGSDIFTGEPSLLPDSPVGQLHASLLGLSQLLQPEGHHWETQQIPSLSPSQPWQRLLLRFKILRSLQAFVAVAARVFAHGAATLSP
T1 sequence (looked up) 2: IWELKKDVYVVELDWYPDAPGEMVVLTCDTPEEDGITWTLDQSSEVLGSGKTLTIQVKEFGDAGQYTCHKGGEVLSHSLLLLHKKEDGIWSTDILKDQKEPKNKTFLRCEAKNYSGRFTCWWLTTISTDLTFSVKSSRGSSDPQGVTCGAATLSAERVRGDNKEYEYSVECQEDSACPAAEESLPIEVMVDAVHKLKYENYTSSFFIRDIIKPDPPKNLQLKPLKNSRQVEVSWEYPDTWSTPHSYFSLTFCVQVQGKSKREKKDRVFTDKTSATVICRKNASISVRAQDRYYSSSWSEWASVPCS
Nature of the experiment: SPR (Biacore 8K), mAb captured on anti-human IgG, hIL-23 as analyte, 25 °C. As for the experimental part: Binding affinities (K_D) of antibodies to human IL-23 (generated as described in Examples 1-3) were determined through surface plasmon resonance (SPR) using a BIA-CORE™ 8K SPR system (Cytiva). […] Anti-IL23 mAb constructs (diluted to 2 µg/mL) were captured onto flow cell 2 (active) for 60 sec at a flow rate of 10 µL/min. Recombinant Human IL-23 was prepared at concentrations of 0, 1.23, 3.7, 11.11, 33.33, 100 nM and injected over flow cell 1 (reference) and flow cell 2 (active) for 180 sec at a flow rate of 50 µL/min. Samples were injected in a multi-cycle manner over freshly captured mAb, by regenerating the capture surfaces with injection of 10 mM glycine, pH 1.5 for 30 sec at a flow rate of 30 µL/min. A 1:1 kinetic binding model was utilized to determine the apparent association (ka) and dissociation rate constants (kd). Their ratio provides the apparent equilibrium dissociation constant or affinity constant (K_D=kd/ka).
Turning to B1, the koff is under 1e-06 s⁻¹ and the kon came to 266000 M⁻¹ s⁻¹.
In the case of B2, the off-rate constant (koff) is under 1e-06 s⁻¹ and the on-rate constant (kon) was determined as 167000 M⁻¹ s⁻¹.
Regarding B3, the off-rate constant (koff) was under 1e-06 s⁻¹ and the kon was 247000 M⁻¹ s⁻¹.
Consider B4, for which the koff is under 1e-06 s⁻¹ and the kon came out at 151000 M⁻¹ s⁻¹.
For B5, in that order: under 1e-06 s⁻¹ and 164000 M⁻¹ s⁻¹.

The next experiment has as its target T1, Recombinant Human IL-23. Nature of the experiment: cell-based or functional assay.
As for B1, the “Relative IC50, inhibition of IL-23-induced STAT3 activation (luciferase reporter, HEK 293F IL-23R+/IL-12Rβ1+)” value is 0.64 relative to Reference Antibody 1.
On the same count and under the same terms, with B2 the figure was 1 relative to Reference Antibody 1; with B3, 0.409 relative to Reference Antibody 1.
As for B4, the “Relative IC50, inhibition of IL-23-induced STAT3 activation (luciferase reporter, HEK 293F IL-23R+/IL-12Rβ1+)” value was 0.612 relative to Reference Antibody 1.
Regarding B5, the “Relative IC50, inhibition of IL-23-induced STAT3 activation (luciferase reporter, HEK 293F IL-23R+/IL-12Rβ1+)” value was 0.868 relative to Reference Antibody 1.

For another experiment, the target named is T1, Recombinant Human IL-23. Nature of the experiment: cell-based or functional assay. This is another data set of the same source.
For the molecule B1, the “IC50, inhibition of STAT3 activity and phosphorylation” value is under 1 nM.

Another experiment has as its target T1, Recombinant Human IL-23. Nature of the experiment: cell-based or functional assay. This is another data set of the same source.
B2: the “Relative IC50, inhibition of IL-23-induced phosphorylation of STAT3 in DB cells (pSTAT3 ELISA)” value (shortened to “Relative IC50, inhibition … (pSTAT3 ELISA)”) was 1 relative to Reference Antibody 1.
As to B4, the “Relative IC50, inhibition … (pSTAT3 ELISA)” value was 0.573 relative to Reference Antibody 1.
As for B5, the “Relative IC50, inhibition … (pSTAT3 ELISA)” value is 0.799 relative to Reference Antibody 1.

As usually defined, the koff is a measure of how fast the partners let go of each other. As usually defined, the kon is the rate constant with which the complex forms.

For the origin of these results see patent publication US12655208 (PARAGON THERAPEUTICS, dated 2026).
